In PMC6005685 (Journal of molecular recognition : JMR, 2017):

B1: GST cleaved Grb7RA domain (domain or fragment)
chain: GSHVVKVYSEDGACRSVEVAAGATARHVCEMLVQRAHALSDETWGLVECHPHLALERGLEDHESVVEVQAAWPVGGDSRFVFRKNFAK
B2: 6His-Grb7RA domain (domain or fragment, UniProt Q14451 102-187, looked up)
chain: HVVKVYSEDGACRSVEVAAGATARHVCEMLVQRAHALSDETWGLVECHPHLALERGLEDHESVVEVQAAWPVGGDSRFVFRKNFAK

Experiments:
[1] = biological target: the molecule itself; assay: SEC
[2] = biological target: the molecule itself; assay: cross-linking

Protein	stoichiometry N [1]	stoichiometry N [2]
B1	2	3
B2	3	2
